The values below come from patent US20190142902A1 (RELAXERA PHARMAZEUTISCHE GESELLSCHAFT MBH, published 2019).

In this assay the target is T1, human relaxin receptor RXFP1 (relaxin family peptide receptor 1) (human, UniProt Q9HBX9 1-757).
T1 sequence (looked up): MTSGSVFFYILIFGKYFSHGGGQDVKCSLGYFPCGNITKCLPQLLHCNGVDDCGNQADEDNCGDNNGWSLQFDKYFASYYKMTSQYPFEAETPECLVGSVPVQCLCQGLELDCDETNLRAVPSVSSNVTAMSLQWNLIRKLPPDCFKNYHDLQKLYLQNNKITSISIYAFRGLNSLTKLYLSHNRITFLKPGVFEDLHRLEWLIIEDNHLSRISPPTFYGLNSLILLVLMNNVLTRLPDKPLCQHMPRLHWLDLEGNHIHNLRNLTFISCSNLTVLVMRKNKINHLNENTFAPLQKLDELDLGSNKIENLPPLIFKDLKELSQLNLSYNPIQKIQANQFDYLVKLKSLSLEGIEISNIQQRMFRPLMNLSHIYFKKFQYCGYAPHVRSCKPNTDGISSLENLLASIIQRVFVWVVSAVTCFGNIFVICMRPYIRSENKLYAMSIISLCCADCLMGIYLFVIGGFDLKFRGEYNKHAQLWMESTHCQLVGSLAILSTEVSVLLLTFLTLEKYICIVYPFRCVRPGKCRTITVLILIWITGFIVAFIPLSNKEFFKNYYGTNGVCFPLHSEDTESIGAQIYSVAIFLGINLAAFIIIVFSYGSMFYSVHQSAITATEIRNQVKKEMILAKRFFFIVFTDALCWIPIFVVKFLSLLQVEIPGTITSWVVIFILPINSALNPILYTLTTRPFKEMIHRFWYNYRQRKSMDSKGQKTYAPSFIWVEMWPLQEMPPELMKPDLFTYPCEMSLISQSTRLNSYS
Put plainly: cell-based or functional assay.

B1: -Asp-shRlx, single aa degradation product of synthetic human relaxin-2 (ligand)
chain 1: ELYSALANKCCHVGCTKRSLARFC
chain 2: SWMEEVIKLCGRELVRAQIAICGMSTWS
modifications: pGlu (pyroglutamate) at position 1
For the molecule B1, the “cAMP response pEC50 (cAMP reporter gene assay, HEK293T cells overexpressing RXFP1)” value is 10.2 pEC50 (negative decadic logarithm of the half-maximum concentration).
